Assay results from US20230002480A1.

Legend:
Test in all cases: cell-based or functional assay
[1] = target: HIV-1 Env of pseudovirus BJOX028000.10.3 (clade CRF01_AE (T/F)) (HIV-1)
[2] = target: HIV-1 Env of pseudovirus P0402_c2_11 (clade G) (HIV-1)
[3] = target: HIV-1 Env of pseudovirus BJOX009000.02.4 (clade CRF01_AE) (HIV-1)
[4] = target: HIV-1 Env of pseudovirus 211-9 (clade CRF02_AG) (HIV-1)
[5] = target: HIV-1 Env of pseudovirus T255-34 (clade CRF02_AG) (HIV-1)
[6] = target: HIV-1 Env of pseudovirus ZM247v1(Rev-) (clade C (T/F)) (HIV-1)
[7] = target: HIV-1 Env of pseudovirus ZM135M.PL10a (clade C) (HIV-1)
[8] = target: HIV-1 Env of pseudovirus PVO.4 (clade B) (HIV-1)
[9] = target: HIV-1 Env of pseudovirus CNE21 (clade BC) (HIV-1)
[10] = target: HIV-1 Env of pseudovirus CNE19 (clade BC) (HIV-1)
[11] = target: HIV-1 Env of pseudovirus 246F C1G (clade C (T/F)) (HIV-1)
[12] = target: HIV-1 Env of pseudovirus CNE20 (clade BC) (HIV-1)
[13] = target: HIV-1 Env of pseudovirus CNE52 (clade BC) (HIV-1)
[14] = target: HIV-1 Env of pseudovirus BF1266.431a (clade C (T/F)) (HIV-1)
[15] = target: HIV-1 Env of pseudovirus Ce1172_H1 (clade C (T/F)) (HIV-1)
[16] = target: HIV-1 Env of pseudovirus 6244_13_B5_4576 (clade B (T/F)) (HIV-1)
[17] = target: HIV-1 Env of pseudovirus Ce0393_C3 (clade C (T/F)) (HIV-1)
[18] = target: HIV-1 Env of pseudovirus ZM233M.PB6 (clade C) (HIV-1)
[19] = target: HIV-1 Env of pseudovirus HIV-001428-2.42 (clade C) (HIV-1)
[20] = target: HIV-1 Env of pseudovirus 1394C9G1(Rev-) (clade C (T/F)) (HIV-1)
[21] = target: HIV-1 Env of pseudovirus Ce2010_F5 (clade C (T/F)) (HIV-1)

## 10E8 (antibody)
[1]
  IC50, titer in TZM.bl cells: 0.665 µg/mL
  IC80, titer in TZM.bl cells: 7.36 µg/mL
[2]
  IC50, titer in TZM.bl cells: 0.172 µg/mL
  IC80, titer in TZM.bl cells: 3.29 µg/mL
[3]
  IC50, titer in TZM.bl cells: 1.57 µg/mL
  IC80, titer in TZM.bl cells: 9.95 µg/mL
[4]
  IC50, titer in TZM.bl cells: 1.09 µg/mL
  IC80, titer in TZM.bl cells: 6.51 µg/mL
[5]
  IC50, titer in TZM.bl cells: 0.778 µg/mL
  IC80, titer in TZM.bl cells: 4.21 µg/mL

## N49P18.1 (antibody)
[6]
  IC50: 10.9 µg/mL
  IC80: > 50 µg/mL
  MPI: 79
[7]
  IC50: > 50 µg/mL
  IC80: > 50 µg/mL
  MPI: 46
[8]
  IC50: 9.65 µg/mL
  IC80: 40.2 µg/mL
  MPI: 84
[9]
  IC50: 7.93 µg/mL
  IC80: 29.2 µg/mL
  MPI: 95
[10]
  IC50: 2.34 µg/mL
  IC80: 9.64 µg/mL
  MPI: 99
[11]
  IC50: 3.4 µg/mL
  IC80: 20.2 µg/mL
  MPI: 97
[12]
  IC50: 1.33 µg/mL
  IC80: 6.36 µg/mL
  MPI: 100
[13]
  IC50: 2.46 µg/mL
  IC80: 6.65 µg/mL
  MPI: 100
[14]
  IC50: 3.48 µg/mL
  IC80: 20.8 µg/mL
  MPI: 93
[15]
  IC50: 46.4 µg/mL
  IC80: > 50 µg/mL
  MPI: 52
[16]
  IC50: 33.4 µg/mL
  IC80: > 50 µg/mL
  MPI: 61
[17]
  IC50: 10.3 µg/mL
  IC80: 24.8 µg/mL
  MPI: 92
[18]
  IC50: 38.4 µg/mL
  IC80: > 50 µg/mL
  MPI: 57
[19]
  IC50: 1.13 µg/mL
  IC80: 8.31 µg/mL
  MPI: 100
[20]
  IC50: > 50 µg/mL
  IC80: > 50 µg/mL
  MPI: 17
[21]
  IC50: 29 µg/mL
  IC80: > 50 µg/mL
  MPI: 68

## PG9 (antibody)
[1]
  IC50, titer in TZM.bl cells: 1.1 µg/mL
  IC80, titer in TZM.bl cells: 21.5 µg/mL
[2]
  IC50, titer in TZM.bl cells: 0.296 µg/mL
  IC80, titer in TZM.bl cells: 2.37 µg/mL
[3]
  IC50, titer in TZM.bl cells: 1.73 µg/mL
  IC80, titer in TZM.bl cells: 8.21 µg/mL
[4]
  IC50, titer in TZM.bl cells: 0.049 µg/mL
  IC80, titer in TZM.bl cells: 0.243 µg/mL
[5]
  IC50, titer in TZM.bl cells: 0.023 µg/mL
  IC80, titer in TZM.bl cells: 0.134 µg/mL

## 10-1074 (antibody)
[1]
  IC50, titer in TZM.bl cells: > 50 µg/mL
  IC80, titer in TZM.bl cells: > 50 µg/mL
[2]
  IC50, titer in TZM.bl cells: 0.012 µg/mL
  IC80, titer in TZM.bl cells: 0.039 µg/mL
[3]
  IC50, titer in TZM.bl cells: > 50 µg/mL
  IC80, titer in TZM.bl cells: > 50 µg/mL
[4]
  IC50, titer in TZM.bl cells: 0.112 µg/mL
  IC80, titer in TZM.bl cells: 0.425 µg/mL
[5]
  IC50, titer in TZM.bl cells: > 50 µg/mL
  IC80, titer in TZM.bl cells: > 50 µg/mL

## N49P11 (antibody)
[6]
  IC50: 7.48 µg/mL
  IC80: 21.5 µg/mL
  MPI: 100
[7]
  IC50: 3.97 µg/mL
  IC80: 16.6 µg/mL
  MPI: 100
[8]
  IC50: 0.248 µg/mL
  IC80: 1.17 µg/mL
  MPI: 100
[9]
  IC50: 7.4 µg/mL
  IC80: 21.9 µg/mL
  MPI: 100
[10]
  IC50: 0.437 µg/mL
  IC80: 5.5 µg/mL
  MPI: 100
[11]
  IC50: 8.48 µg/mL
  IC80: 20.9 µg/mL
  MPI: 100
[12]
  IC50: 5.19 µg/mL
  IC80: 22.6 µg/mL
  MPI: 100
[13]
  IC50: 0.06 µg/mL
  IC80: 0.307 µg/mL
  MPI: 100
[14]
  IC50: 0.998 µg/mL
  IC80: 7.13 µg/mL
  MPI: 100
[15]
  IC50: 3.55 µg/mL
  IC80: 19.2 µg/mL
  MPI: 100
[16]
  IC50: 1.12 µg/mL
  IC80: 5.45 µg/mL
  MPI: 100
[17]
  IC50: 1.51 µg/mL
  IC80: 9.71 µg/mL
  MPI: 100
[18]
  IC50: 5.92 µg/mL
  IC80: 18.5 µg/mL
  MPI: 100
[19]
  IC50: 0.221 µg/mL
  IC80: 1.64 µg/mL
  MPI: 100
[20]
  IC50: 6.13 µg/mL
  IC80: 22.3 µg/mL
  MPI: 100
[21]
  IC50: 0.38 µg/mL
  IC80: 3.27 µg/mL
  MPI: 100
